Data: US20200317768A1 (published 2020)
Positions count from the first letter of the chain named. Numbers in names are those of the source.

T1: human FcγRIIaH extracellular domain, C-terminal His-tag (human, UniProt P12318 34-217)
T1 construct: also called human FcγRIIa (type H); FcgRIIaH
T1 sequence: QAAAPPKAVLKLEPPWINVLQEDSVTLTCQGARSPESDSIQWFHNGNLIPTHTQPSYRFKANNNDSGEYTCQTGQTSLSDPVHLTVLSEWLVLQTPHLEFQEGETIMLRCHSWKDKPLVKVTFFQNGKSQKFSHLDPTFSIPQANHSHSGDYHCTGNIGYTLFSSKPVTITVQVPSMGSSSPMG

T2: human FcγRIIb extracellular domain, C-terminal His-tag (human, UniProt P31994 43-217)
T2 construct: also called FcgRIIb (human)
T2 sequence: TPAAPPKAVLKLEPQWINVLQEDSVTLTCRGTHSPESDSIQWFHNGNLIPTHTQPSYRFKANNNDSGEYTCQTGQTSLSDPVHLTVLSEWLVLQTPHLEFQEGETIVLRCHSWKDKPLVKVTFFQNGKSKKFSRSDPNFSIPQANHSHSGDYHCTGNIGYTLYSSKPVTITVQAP

T3: human FcγRIIaH extracellular domain, His-tagged (human, UniProt P12318 34-217)
T3 construct: also called human FcγRIIa (type H); FcgRIIaH; not shown: C-terminal His-tag
T3 sequence: T1 sequence

T4: human FcγRIIb extracellular domain, His-tagged (human, UniProt P31994 43-217)
T4 construct: also called FcgRIIb (human); not shown: C-terminal His-tag
T4 sequence: T2 sequence

T5: human FcγRIIaR extracellular domain, His-tagged (human, UniProt P12318 34-217)
T5 construct: also called human FcγRIIa (type R); FcgRIIaR; not shown: C-terminal His-tag
T5 chain: T1 sequence with H134R

T6: cynomolgus monkey FcγRIIIaS extracellular domain, His-tagged (cynomolgus monkey, UniProt Q8SPW2 21-206 at identity 1.00))
T6 construct: also called cyno FcγRIIIaS; cynoFcγRIIIaS; not shown: C-terminal His-tag
T6 chain: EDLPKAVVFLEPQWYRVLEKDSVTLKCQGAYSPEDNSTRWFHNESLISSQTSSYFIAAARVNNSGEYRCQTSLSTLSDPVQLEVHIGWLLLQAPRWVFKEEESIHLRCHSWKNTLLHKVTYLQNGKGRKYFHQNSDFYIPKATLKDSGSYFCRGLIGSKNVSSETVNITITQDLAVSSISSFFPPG

T7: cynomolgus monkey FcγRIIa1 extracellular domain, His-tagged (cynomolgus monkey)
T7 construct: also called cyno FcγRIIa1; cynoFcgRIIa1; not shown: C-terminal His-tag
T7 chain: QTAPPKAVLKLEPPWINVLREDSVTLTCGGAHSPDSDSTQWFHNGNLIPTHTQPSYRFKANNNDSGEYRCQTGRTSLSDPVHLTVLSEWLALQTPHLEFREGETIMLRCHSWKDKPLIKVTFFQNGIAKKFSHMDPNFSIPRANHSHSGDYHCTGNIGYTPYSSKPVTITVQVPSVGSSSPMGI

T8: cynomolgus monkey FcγRIIa2 extracellular domain, His-tagged (cynomolgus monkey)
T8 construct: also called cyno FcγRIIa2; cynoFcgRIIa2; not shown: C-terminal His-tag
T8 chain: T7 chain with P95T, T121A, I127K, A128S, K130N, D135N, R142Q

T9: cynomolgus monkey FcγRIIb extracellular domain, His-tagged (cynomolgus monkey)
T9 construct: also called cyno FcγRIIb; cynoFcγRIIb; not shown: C-terminal His-tag
T9 chain: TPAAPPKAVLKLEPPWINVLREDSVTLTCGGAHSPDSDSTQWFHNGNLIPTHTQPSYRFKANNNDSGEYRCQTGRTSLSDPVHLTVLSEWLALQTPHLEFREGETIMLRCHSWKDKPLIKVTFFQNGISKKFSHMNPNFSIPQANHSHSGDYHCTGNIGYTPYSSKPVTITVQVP

T10: cynomolgus monkey FcγRIIa3 extracellular domain, His-tagged (cynomolgus monkey)
T10 construct: also called cyno FcγRIIa3; cynoFcgRIIa3; not shown: C-terminal His-tag
T10 chain: T7 chain with P95T, T121A, A128S, H133P, D135N

B1: GpH7-B3 variant N325F/GpL16-k0 (antibody, human IgG1, kappa)
heavy: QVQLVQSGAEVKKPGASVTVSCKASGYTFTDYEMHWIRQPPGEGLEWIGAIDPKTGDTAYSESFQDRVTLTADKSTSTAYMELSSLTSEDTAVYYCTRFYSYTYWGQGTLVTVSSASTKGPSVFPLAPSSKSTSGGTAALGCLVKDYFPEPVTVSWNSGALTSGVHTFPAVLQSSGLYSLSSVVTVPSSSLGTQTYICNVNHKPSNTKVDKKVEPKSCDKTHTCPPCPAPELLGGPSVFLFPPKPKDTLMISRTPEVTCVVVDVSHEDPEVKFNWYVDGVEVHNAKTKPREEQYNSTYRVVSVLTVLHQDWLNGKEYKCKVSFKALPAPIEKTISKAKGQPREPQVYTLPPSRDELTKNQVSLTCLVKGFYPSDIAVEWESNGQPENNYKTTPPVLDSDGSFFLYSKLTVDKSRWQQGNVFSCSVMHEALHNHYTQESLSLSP
light: DIVMTQSPLSLPVTPGEPASISCQASESLVHSNRNTYLHWYLQKPGQSPQLLIYKVSNRFSGVPDRFSGSGSGTDFTLKISRVEAEDVGVYYCSQNTHVPPTFGQGTKVEIERTVAAPSVFIFPPSDEQLKSGTASVVCLLNNFYPREAKVQWKVDNALQSGNSQESVTEQDSKDSTYSLSSTLTLSKADYEKHKVYACEVTHQGLSSPVTKSFNRGEC
B2: GpH7-B3 variant P238Y/GpL16-k0 (antibody, human IgG1, kappa)
heavy: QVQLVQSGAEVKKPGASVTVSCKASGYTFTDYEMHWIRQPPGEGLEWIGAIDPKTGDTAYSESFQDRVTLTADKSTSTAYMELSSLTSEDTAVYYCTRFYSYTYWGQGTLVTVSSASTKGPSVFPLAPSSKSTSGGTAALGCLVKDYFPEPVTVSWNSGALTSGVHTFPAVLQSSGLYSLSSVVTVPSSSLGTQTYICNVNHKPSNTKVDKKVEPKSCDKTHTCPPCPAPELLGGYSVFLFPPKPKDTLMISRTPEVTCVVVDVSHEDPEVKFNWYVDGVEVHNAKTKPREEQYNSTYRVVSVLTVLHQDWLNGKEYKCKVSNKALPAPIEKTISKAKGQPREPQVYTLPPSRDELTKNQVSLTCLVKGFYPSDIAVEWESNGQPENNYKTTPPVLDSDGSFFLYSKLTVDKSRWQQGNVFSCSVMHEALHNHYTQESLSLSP
light: B1 light
B3: GpH7-B3 variant V266F/GpL16-k0 (antibody, human IgG1, kappa)
heavy: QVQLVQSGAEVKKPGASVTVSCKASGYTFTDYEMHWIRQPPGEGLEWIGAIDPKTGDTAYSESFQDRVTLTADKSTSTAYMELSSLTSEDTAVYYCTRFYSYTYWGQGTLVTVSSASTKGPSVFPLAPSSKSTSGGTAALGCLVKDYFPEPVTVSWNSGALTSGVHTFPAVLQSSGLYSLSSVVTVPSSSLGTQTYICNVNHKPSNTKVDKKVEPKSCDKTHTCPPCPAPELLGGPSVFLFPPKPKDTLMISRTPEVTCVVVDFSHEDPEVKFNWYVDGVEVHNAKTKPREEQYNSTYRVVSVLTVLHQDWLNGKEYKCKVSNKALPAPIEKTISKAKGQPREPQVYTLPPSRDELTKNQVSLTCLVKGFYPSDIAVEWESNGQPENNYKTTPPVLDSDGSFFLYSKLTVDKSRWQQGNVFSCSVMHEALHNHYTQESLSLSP
light: B1 light
B4: M103205H795-MY453/M103202L889-SK1 (antibody, human IgG1, kappa)
heavy: QVTLKESGPVLVKPTETLTLTCTVSGIDLSHDDISWVRQAPGKGLEWVGIISYAGSTYYASWAKGRLTISKDTSKNQVVLTMTNMDPVDTATYYCARGVPAYSHGGDLWGQGTLVTVSSASTKGPSVFPLAPSSKSTSGGTAALGCLVKDYFPEPVTVSWNSGALTSGVHTFPAVLQSSGLYSLSSVVTVPSSSLGTQTYICNVNHKPSNTKVDKKVEPKSCDKTHTCPPCPARELLTGPSVFLFPPKPKDTLMISRTPEVTCVVVDVSDEDPEVKFNWYVDGVEVHNAKTKPREEQYNSTYRVVSVLTVLHQDWLNGKEYKCKVSNKALPKPIEKTISKAKGQPREPQVYTLPPSREEMTKNQVSLTCLVKGFYPSDIAVEWESNGQPENNYKTTPPVLDSDGSFFLYSKLTVDKSRWQQGNVFSCSVMHEALHNHYTQKSLSLSP
light: DIVMTQSPATLSLSPGERATLSCTSSQSVYHANWLSWFQQKPGQPPKLLIYWASTLAYGVPSRFSGSGSGTDFTLTISSLQPEDAATYYCAGGYGGGRYAFGQGTKVEIKRTVAAPSVFIFPPSDEQLKSGTASVVCLLNNFYPREAKVQWKVDNALQSGNSQESVTEQDSKDSTYSLSSTLTLSKADYEKHKVYACEVTHQGLSSPVTKSFNRGEC
notes: copies: 2 + 2
B5: M103205H795-MY454/M103202L889-SK1 (antibody, human IgG1, kappa)
heavy: B4 heavy with R234S
light: B4 light
notes: copies: 2 + 2
B6: M103205H795-MY455/M103202L889-SK1 (antibody, human IgG1, kappa)
heavy: B4 heavy with R234T
light: B4 light
notes: copies: 2 + 2
B7: M103205H795-MY456/M103202L889-SK1 (antibody, human IgG1, kappa)
heavy: B4 heavy with R234V
light: B4 light
notes: copies: 2 + 2
B8: M103205H795-MY458/M103202L889-SK1 (antibody, human IgG1, kappa)
heavy: B4 heavy with R234Y
light: B4 light
notes: copies: 2 + 2
B9: M103205H795-MY457/M103202L889-SK1 (antibody, human IgG1, kappa)
heavy: B4 heavy with R234W
light: B4 light
notes: copies: 2 + 2

Target: T1, human FcγRIIaH extracellular domain, …
Assay: SPR 25C; FcgR bound per captured antibody, relative to parent B3
Description: (§1) These Fc variants are referred to as B3 variants. B3 variants were expressed and the binding of protein-A purified antibodies to each FcγR (FcγRIIa type H. FcγRIIa type R, FcγRIIb, and FcγRIIIaF) was comprehensively evaluated as follows. Analysis of interaction between each altered antibody and the Fcγ receptor prepared as mentioned above was carried out using BIACORE® T100 (GE Healthcare), BIACORE® T200 (GE Healthcare), BIACORE® A100, or BIACORE® 4000. HBS-EP+(GE Healthcare) was used as the running buffer, and the measurement temperature was set to 25° C. Chips produced by immobilizing Protein A (Thermo Scientific), Protein A/G (Thermo Scientific), or Protein L (ACTIGEN or BioVision) by the amine coupling method to a Series S sensor Chip CM5 or CM4 (GE Healthcare) were used. After capturing of antibodies of interest onto these sensor chips, an Fcγ receptor diluted with the running buffer was allowed to interact, the amount bound to an antibody was measured. However, since the amount of Fcγ receptor bound depends on the amount of the captured antibodies, the amount of Fcγ receptor bound was divided by the amount of each antibody captured to obtain corrected values, and these values were compared. Furthermore, antibodies captured onto the chips were washed by 10 mM glycine-HCl pH1.5, and the chips were regenerated and used repeatedly. […] The value obtained by multiplying this value by 100 was used as an indicator of the relative FcγR-binding activity of each variant.

Row | Binding to human FcgRs (parent B3 = 100) | Binder
1 | 65 | B1
2 | 93 | B2

Target: T2, human FcγRIIb extracellular domain, …
Assay: as above
Description: as §1

Row | Binding to human FcgRs (parent B3 = 100) | Binder
3 | 72 | B1
4 | 114 | B2
5 | 88 | B3

Target: T3, human FcγRIIaH extracellular domain, …
Assay: SPR (BIACORE), captured antibody, FcgR as analyte
Description: (§2) The kinetic analysis of interactions between these antibodies and FcγR was carried out using BIACORE® T200 or BIACORE® 4000 (GE Healthcare). HBS-EP+ (GE Healthcare) was used as the running buffer, and the measurement temperature was set to 25° C. A chip produced by immobilizing Protein A. Protein A/G or mouse anti-human IgG kappa light chain (BD Biosciences) onto a Series S Sensor Chip CM4 or CM5 (GE Healthcare) by the amine-coupling method was used. […] After the measurement, the antibody captured on the chip was washed off by allowing reaction with 10 mM glycine-HCl, pH1.5 and 25 mM NaOH so that the chip was regenerated and used repeatedly. The sensorgrams obtained as measurement results were analyzed by the 1:1 Langmuir binding model using the BIACORE® Evaluation Software to calculate the binding rate constant ka (L/mol/s) and dissociation rate constant kd (l/s), and the dissociation constant KD (mol/L) was calculated from these values. […] Regarding such interactions, KD values were calculated using the following 1:1 binding model described in BIACORE® T100 Software Handbook BR1006-48 Edition AE.

Row | Kd [nM] | Binder
6 | 750 | B4
7 | 410 | B5
8 | 310 | B6
9 | 170 | B7
10 | 160 | B8
11 | 120 | B9

Target: T4, human FcγRIIb extracellular domain, …
Assay: SPR (BIACORE), captured antibody, FcgR as analyte
Description: as §2

Row | Kd [nM] | Binder
12 | 6500 | B4
13 | 3100 | B5
14 | 2200 | B6
15 | 1100 | B7
16 | 990 | B8
17 | 330 | B9

Target: T5, human FcγRIIaR extracellular domain, …
Assay: SPR (BIACORE), captured antibody, FcgR as analyte
Description: as §2

Row | Kd [nM] | Binder
18 | 1600 | B4
19 | 760 | B5
20 | 460 | B6
21 | 290 | B7
22 | 170 | B8
23 | 73 | B9

Target: T6, cynomolgus monkey FcγRIIIaS …
Assay: SPR (BIACORE), captured antibody, FcgR as analyte
Description: as §2

Row | Kd [nM] | Binder
24 | 6500 | B4
25 | 2500 | B5
26 | 2800 | B6
27 | 2000 | B7
28 | 190 | B8
29 | 1100 | B9

Target: T7, cynomolgus monkey FcγRIIa1 …
Assay: SPR (BIACORE), captured antibody, FcgR as analyte
Description: as §2

Row | Kd [nM] | Binder
30 | 8200 | B4
31 | 3800 | B5
32 | 3100 | B6
33 | 1900 | B7
34 | 1800 | B8
35 | 830 | B9

Target: T11, human FcγRIIIaV extracellular domain, His-tagged (human, UniProt P08637 17-208)
T11 construct: also called FcgRIIIaV; not shown: C-terminal His-tag
Assay: SPR (BIACORE), captured antibody, FcgR as analyte
Description: as §2

T11 sequence (P08637 17-208 F176V): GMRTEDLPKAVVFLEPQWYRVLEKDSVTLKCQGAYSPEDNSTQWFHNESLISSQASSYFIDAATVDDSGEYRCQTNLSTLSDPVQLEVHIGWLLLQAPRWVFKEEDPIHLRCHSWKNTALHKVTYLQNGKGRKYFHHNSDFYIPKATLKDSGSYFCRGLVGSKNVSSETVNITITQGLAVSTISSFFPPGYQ

Row | Kd [µM] | Binder
36 | 14 | B4
37 | 5.9 | B5
38 | 6.8 | B6
39 | 5.3 | B7
40 | 5.3 | B8
41 | 3.5 | B9

Target: T8, cynomolgus monkey FcγRIIa2 …
Assay: SPR (BIACORE), captured antibody, FcgR as analyte
Description: as §2

Row | Kd [nM] | Binder
42 | 9900 | B4
43 | 3100 | B5
44 | 1900 | B6
45 | 1700 | B7
46 | 1600 | B8
47 | 840 | B9

Target: T9, cynomolgus monkey FcγRIIb extracellular …
Assay: SPR (BIACORE), captured antibody, FcgR as analyte
Description: as §2

Row | Kd [nM] | Binder
48 | 2100 | B4
49 | 1000 | B5
50 | 920 | B6
51 | 520 | B7
52 | 430 | B8
53 | 200 | B9

Target: T10, cynomolgus monkey FcγRIIa3 …
Assay: SPR (BIACORE), captured antibody, FcgR as analyte
Description: as §2

Row | Kd [µM] | Binder
54 | 21 | B4
55 | 7.6 | B5
56 | 5.4 | B6
57 | 3.4 | B7
58 | 3 | B8
59 | 1.2 | B9
